Results from article PMC10884834, “SPR spectroscopic analysis of myosin binding to wild type and mutant UNC45B” (microPublication Biology, 2024).

Key:
[1] = biological target: myosin II, full-length, purified from rabbit skeletal muscle (rabbit, UniProt Q28641 1-1938); test: SPR; BIAcore X100; His-tagged UNC45B constructs (0.2 uM) captured on Ni2+-NTA sensor chip; myosin analyte 1 up to 3500 nM at 5 ul/min; HBS-P (10 mM HEPES, 150 mM NaCl, 0.005% Tween20, pH 7.4) plus 50 uM EDTA; 20 C; steady-state signal fitted to a 1:1 one-site saturation model; n=3; conditions: both partners purified
[2] = biological target: myosin II, full-length, purified from rabbit skeletal muscle (rabbit, UniProt Q28641 1-1938, Deletion taken as residues 600-630, as the methods print for the mutant; the description gives the loop as N601-D630, so residue 600 is uncertain. Full-length canonical isoform (931 aa) assumed. His-t); test: as above; conditions: both partners purified

B1: UNC45B (wild type), Homo sapiens (natural protein, human, UniProt Q8IWX7 1-931, looked up)
chain: MAEVEAVQLKEEGNRHFQLQDYKAATNSYSQALKLTKDKALLATLYRNRAACGLKTESYVQAASDASRAIDINSSDIKALYRRCQALEHLGKLDQAFKDVQRCATLEPRNQNFQEMLRRLNTSIQEKLRVQFSTDSRVQKMFEILLDENSEADKREKAANNLIVLGREEAGAEKIFQNNGVALLLQLLDTKKPELVLAAVRTLSGMCSGHQARATVILHAVRIDRICSLMAVENEEMSLAVCNLLQAIIDSLSGEDKREHRGKEEALVLDTKKDLKQITSHLLDMLVSKKVSGQGRDQALNLLNKNVPRKDLAIHDNSRTIYVVDNGLRKILKVVGQVPDLPSCLPLTDNTRMLASILINKLYDDLRCDPERDHFRKICEEYITGKFDPQDMDKNLNAIQTVSGILQGPFDLGNQLLGLKGVMEMMVALCGSERETDQLVAVEALIHASTKLSRATFIITNGVSLLKQIYKTTKNEKIKIRTLVGLCKLGSAGGTDYGLRQFAEGSTEKLAKQCRKWLCNMSIDTRTRRWAVEGLAYLTLDADVKDDFVQDVPALQAMFELAKAGTSDKTILYSVATTLVNCTNSYDVKEVIPELVQLAKFSKQHVPEEHPKDKKDFIDMRVKRLLKAGVISALACMVKADSAILTDQTKELLARVFLALCDNPKDRGTIVAQGGGKALIPLALEGTDVGKVKAAHALAKIAAVSNPDIAFPGERVYEVVRPLVRLLDTQRDGLQNYEALLGLTNLSGRSDKLRQKIFKERALPDIENYMFENHDQLRQAATECMCNMVLHKEVQERFLADGNDRLKLVVLLCGEDDDKVQNAAAGALAMLTAAHKKLCLKMTQVTTQWLEILQRLCLHDQLSVQHRGLVIAYNLLAADAELAKKLVESELLEILTVVGKQEPDEKKAEVVQTARECLIKCMDYGFIKPVS
notes: UNC45B, Homo sapiens, codon optimized for E. coli, synthesized (GenScript), in a pET-28 vector; also called wild-type UNC-45B; source: E. coli BL21 DE3, purified (HisPur Ni-NTA resin)
For B1, the Kd [1] was 330 nM.

B2: UNC45B loop deletion mutant (residues 600-630), Homo sapiens (natural protein)
chain: MAEVEAVQLKEEGNRHFQLQDYKAATNSYSQALKLTKDKALLATLYRNRAACGLKTESYVQAASDASRAIDINSSDIKALYRRCQALEHLGKLDQAFKDVQRCATLEPRNQNFQEMLRRLNTSIQEKLRVQFSTDSRVQKMFEILLDENSEADKREKAANNLIVLGREEAGAEKIFQNNGVALLLQLLDTKKPELVLAAVRTLSGMCSGHQARATVILHAVRIDRICSLMAVENEEMSLAVCNLLQAIIDSLSGEDKREHRGKEEALVLDTKKDLKQITSHLLDMLVSKKVSGQGRDQALNLLNKNVPRKDLAIHDNSRTIYVVDNGLRKILKVVGQVPDLPSCLPLTDNTRMLASILINKLYDDLRCDPERDHFRKICEEYITGKFDPQDMDKNLNAIQTVSGILQGPFDLGNQLLGLKGVMEMMVALCGSERETDQLVAVEALIHASTKLSRATFIITNGVSLLKQIYKTTKNEKIKIRTLVGLCKLGSAGGTDYGLRQFAEGSTEKLAKQCRKWLCNMSIDTRTRRWAVEGLAYLTLDADVKDDFVQDVPALQAMFELAKAGTSDKTILYSVATTLVNCTNSYDVKEVIPELVQLAISALACMVKADSAILTDQTKELLARVFLALCDNPKDRGTIVAQGGGKALIPLALEGTDVGKVKAAHALAKIAAVSNPDIAFPGERVYEVVRPLVRLLDTQRDGLQNYEALLGLTNLSGRSDKLRQKIFKERALPDIENYMFENHDQLRQAATECMCNMVLHKEVQERFLADGNDRLKLVVLLCGEDDDKVQNAAAGALAMLTAAHKKLCLKMTQVTTQWLEILQRLCLHDQLSVQHRGLVIAYNLLAADAELAKKLVESELLEILTVVGKQEPDEKKAEVVQTARECLIKCMDYGFIKPVS
Work on B2 yielded a Kd [2] of 2630 nM.
